We go through eleven substances from patent US7985835B2, “Bioactive peptides and peptide derivatives of parathyroid hormone (PTH) and parathyroid hormone-related peptide (PTHrP)” (The General Hospital Corporation, priority 1998, dated 2011).

Entries after “also recorded” stand apart in the source; their conditions may differ. Ends that are not written are not given here.

Test [1] concerns the target T1, human PTH-1 receptor (Homo sapiens, UniProt Q03431).
T1 sequence (Q03431 27-593): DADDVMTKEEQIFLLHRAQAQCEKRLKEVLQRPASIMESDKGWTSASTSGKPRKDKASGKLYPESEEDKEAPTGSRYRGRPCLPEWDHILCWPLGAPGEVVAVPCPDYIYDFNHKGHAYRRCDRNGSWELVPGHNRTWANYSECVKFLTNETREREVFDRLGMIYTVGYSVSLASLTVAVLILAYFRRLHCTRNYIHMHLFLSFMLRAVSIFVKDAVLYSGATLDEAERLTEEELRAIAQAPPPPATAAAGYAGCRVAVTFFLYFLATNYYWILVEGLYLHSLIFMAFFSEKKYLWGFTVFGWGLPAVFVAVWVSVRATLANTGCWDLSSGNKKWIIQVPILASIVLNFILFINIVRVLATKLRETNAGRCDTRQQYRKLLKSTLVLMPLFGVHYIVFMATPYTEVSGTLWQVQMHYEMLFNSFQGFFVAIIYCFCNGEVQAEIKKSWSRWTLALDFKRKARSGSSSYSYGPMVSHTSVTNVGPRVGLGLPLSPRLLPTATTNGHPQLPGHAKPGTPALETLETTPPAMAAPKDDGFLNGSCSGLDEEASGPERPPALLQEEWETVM
The experiment in a line: cAMP in LLC-PK1 cells stably transfected with the human PTH-1 receptor (LLC-B7 cells). It counts as cell-based. Details: expressed in transfected cells. The protocol: FIG. 3. cAMP dose response curves of short amino-terminal PTH analogs in LLC-PK1 cells stably transfected with the human PTH-1 receptor (LLC-B7 cells). LLC-B7 cells in 24 plates were treated with the indicated peptides for 60 mins at 21° C., and then intracellular cAMP levels were measured. All PTH peptides shown are based on the rat PTH sequence and are carboxy-terminally amidated.
FIG. 7. cAMP activity of [Ile5]PTHrP(1-14). LLC-B7 cells were treated with the indicated peptide ligand, each at 100 μM, and then intracellular cAMP levels were measured.
Intracellular cAMP accumulation was measured as described previously (Abou-Samra et al., J. Biol. Chem. 262:1129, 1986). Cells in 24-well plates were rinsed with culture medium containing 0.1% BSA and 2 mM IBMX. The cells were then incubated with compounds of SEQ ID NO: 1 or derivatives thereof for 60 min. at 21° C. […] Intracellular cAMP was extracted by thawing the cells in 1 ml of 50 mM HCl and analyzed by a specific radioimmunoassay using an anti-cAMP antibody (e.g., Sigma, St. Louis, Mo.). […] The supernatant was removed and the bound radioactivity was counted in a gamma-counter (Micromedic). […]
The analysis extends to the PTHrP(1-14) sequence as well. […] LLC-B7 cells were treated with the indicated peptide ligand, each at 100 μM, and then intracellular cAMP levels were measured.

In test [2] the target is T1, human PTH-1 receptor. The experiment in a line: cAMP accumulation in COS-7 cells expressing the cloned human PTH-1 receptor. It counts as cell-based. Details: expressed in transfected cells; host or cells: COS-7. As to conditions: for stimulation of cAMP formation: COS-7 cells expressing cloned human PTH-1 receptor, peptides at 67 μM, 30 minutes at 21° C. The protocol: FIG. 1. Bioactivity of amino-terminal and carboxy-terminal fragments of PTH(1-34). Fragments of parathyroid hormone were synthesized by chemical methods and purified by reverse-phase HPLC. Peptides were tested for the ability to stimulate cAMP accumulation in COS-7 cells expressing the cloned human PTH-1 receptor. PTH(1-34) was tested at a dose of 1 μM, other peptides were tested at 67 μM. Peptides were tested in duplicate (±s.e.m.) at a dose of 67 μM. The cAMP in control untreated cells is indicated by Bsl. Cells were treated for 30 minutes at 21° C.
FIG. 2. Alanine-scan of PTH(1-14). Shown are the bioactivities of 14 different PTH(1-14) derivatives, each having a different amino acid of the native sequence (shown at bottom of figure) (SEQ ID NO:14) replaced by alanine. Peptides were chemically synthesized, purified and tested for ability to stimulate cAMP formation in COS-7 cells expressing the cloned human PTH-1 receptor. Peptides were tested in duplicate (±s.e.m.) at a dose of 67 μM. As a control, untreated cells, indicated by basal, were measured. The PTH(1-14) containing alanine at position 1 was used as the wild-type reference. Cells were stimulated for 30 minutes at 21° C.
Intracellular cAMP accumulation was measured as described previously (Abou-Samra et al., J. Biol. Chem. 262:1129, 1986). Cells in 24-well plates were rinsed with culture medium containing 0.1% BSA and 2 mM IBMX. The cells were then incubated with compounds of SEQ ID NO: 1 or derivatives thereof for 60 min. at 21° C. The supernatant was removed and the cells immediately frozen by placing the whole plate in dry ice powder. Intracellular cAMP was extracted by thawing the cells in 1 ml of 50 mM HCl and analyzed by a specific radioimmunoassay using an anti-cAMP antibody (e.g., Sigma, St. Louis, Mo.). A cAMP analog (2′-O-monosuccinyl-adenosine 3′:5′-cyclic monophosphate tyrosyl methyl ester, obtained from Sigma) which was used a tracer for cAMP was iodinated by the chloramine T method. Free iodine was removed by adsorbing the iodinated cAMP analog onto a C18 Sep-pak cartridge (Waters, Milford, Mass.). After washing with dH20, the iodinated cAMP analog was eluted from the Sep-pak Cartridge with 40% acetonitrille (ACN) and 0.1% trifluoroacetic acid (TFA). The iodinated cAMP analog was lyophilized, reconstituted in 1 ml 0.1% TFA, and injected into a C18 reverse phase HPLC column (Waters). The column was equilibrated with 10% ACN in 0.1% TFA, and eluted with gradient of 10-30% ACN in 0.1% TFA. This allows separation of the mono-iodinated cAMP analog from the non-iodinated cAMP analog. The tracer is stable for up to 4 months when stored at −20° C. […] The supernatant was removed and the bound radioactivity was counted in a gamma-counter (Micromedic). […]

Test [3] addresses T2, rat secretin receptor (rSR) (Rattus norvegicus, UniProt P23811).
T2 construct: expressed in transfected cells; host or cells: COS-7
Briefly: cAMP in COS-7 cells transfected with rat secretin receptor (specificity). As to conditions: COS-7 cells transfected with rSR; FIG. 6. It counts as cell-based. The protocol: FIG. 6. Specificity of PTH(1-14). […] Thus, the response to PTH(1-14) is dependent on the presence of the PTH-1 receptor.
(§1) PTH(1-14) specificity was also tested using the porcine renal cell line LLC-PK1, either untransfected or stably transfected with the human PTH-1 receptor, the LLC-B7 cell line.

For test [4], the system named is untransfected LLC-PK1 cells. Briefly: cAMP dose response in LLC-B7 cells versus untransfected LLC-PK1 cells. It counts as cell-based, porcine. Particulars: LLC-B7 cells vs untransfected LLC-PK1 cells; FIG. 4. On the procedure:
FIG. 4. cAMP dose response curves of PTH(1-14) in LLC-B7 cells and in untransfected LLC-PK1 cells. PTH(1-14) and PTH(1-34) control peptides were tested as in FIG. 3.
as §1

For test [5], the system named is PTH. Particulars: in vitro; cited from earlier work.
For test [6], the system named is the receptor. Particulars: cited from earlier work.
Test [7] deals with AC. Particulars: cited from earlier work.
The target in test [8] is T3, rat PTH-1 receptor (Rattus norvegicus, UniProt P25961).
T3 sequence (P25961 27-591): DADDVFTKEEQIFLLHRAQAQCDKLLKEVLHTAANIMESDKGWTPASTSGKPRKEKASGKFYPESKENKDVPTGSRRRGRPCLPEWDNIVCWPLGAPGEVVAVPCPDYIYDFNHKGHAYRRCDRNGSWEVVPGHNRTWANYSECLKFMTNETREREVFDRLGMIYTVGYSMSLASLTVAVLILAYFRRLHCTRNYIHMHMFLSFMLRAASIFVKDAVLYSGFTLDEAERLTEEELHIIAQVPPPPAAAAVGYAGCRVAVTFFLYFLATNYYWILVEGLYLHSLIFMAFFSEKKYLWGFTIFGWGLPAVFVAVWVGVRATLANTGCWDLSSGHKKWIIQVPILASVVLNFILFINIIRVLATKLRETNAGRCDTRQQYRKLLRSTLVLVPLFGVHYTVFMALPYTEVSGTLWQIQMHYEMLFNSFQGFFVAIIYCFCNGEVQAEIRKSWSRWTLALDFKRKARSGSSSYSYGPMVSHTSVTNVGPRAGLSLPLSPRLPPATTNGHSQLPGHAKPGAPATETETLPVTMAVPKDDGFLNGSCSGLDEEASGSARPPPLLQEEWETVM
As to conditions: CHO cells expressing cloned rat PTH-1 receptor; cited from earlier work.

The test system of test [9] is rat renal membranes. As to conditions: cited from earlier work.

T2 sequence (P23811 26-449): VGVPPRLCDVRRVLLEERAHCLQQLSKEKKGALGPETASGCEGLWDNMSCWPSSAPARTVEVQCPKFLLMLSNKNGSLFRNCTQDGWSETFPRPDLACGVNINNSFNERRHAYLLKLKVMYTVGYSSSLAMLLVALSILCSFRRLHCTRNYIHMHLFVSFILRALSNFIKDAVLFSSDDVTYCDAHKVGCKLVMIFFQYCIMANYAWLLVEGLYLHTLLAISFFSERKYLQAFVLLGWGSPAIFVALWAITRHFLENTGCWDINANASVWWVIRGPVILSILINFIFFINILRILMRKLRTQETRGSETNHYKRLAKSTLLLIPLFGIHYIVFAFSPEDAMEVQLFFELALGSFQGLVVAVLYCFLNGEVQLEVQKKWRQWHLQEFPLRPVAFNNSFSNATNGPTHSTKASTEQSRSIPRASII

AVSEIQLLHDKGKS [[Ile^5] PTHrP(1-14)]: the “cAMP activity, potency relative to native PTHrP(1-14)” value in test [1] (each peptide at 100 μM, FIG. 7) is recorded as “enhanced potency, relative to native PTHrP(1-14)”.
For the substance AVSEIQLMH [[Ala^1] PTH(1-9)], in test [2] (FIG. 1), the “stimulation of cAMP formation” value was “small cAMP response; also recorded: exhibits some biological activity”.
“AlaValSerGluIleGlnLeuMetHisAsnLeuGlyLysHis (AVSEIQLMHNLGKH-NH2) [[Ala^1] PTH(1-14)]”: the “activity relative to native PTH(1-34)” value in [2] (FIG. 1, PTH(1-34) at 1 μM, other peptides at 67 μM) was “weaker than native PTH(1-34)”. The “bioactivity relative to native PTH(1-14)” value in [2] (Ser1 to Ala substitution, compared with native PTH(1-14) peptide) was “measurable increase in bioactivity over the background level of bioactivity of the native PTH(1-14) peptide”.
With “PTH(1-13): PTH variant truncated by one amino acid at the C-terminus, residues 1-13; rat PTH sequence (AVSEIQLMHNLGK)”, the “cAMP dose response activity” value in test [1] (60 mins at 21° C., rat PTH sequence, carboxy-terminally amidated, FIG. 3) is given as “only very weak activity”.
On to “PTH(1-14): 1-14 fragment of PTH; peptides in FIG. 3 are based on the rat PTH sequence (alanine at position 1) (SVSEIQLMHNLGKH)”, for which the “stimulation of cAMP in cells expressing rat secretin receptor” value in [3] was “inactive; also recorded: does not stimulate cAMP”. Moreover, the “dependence of cAMP response on PTH-1 receptor” value in test [4] is “dependent on PTH-1 receptor expression; also recorded: completely dependent on the presence of the PTH-1 receptor”.
As for “PTH(3-34): synthetic analog of bovine PTH (SEIQFMHNLGKHLSSMERVEWLRKKLQDVHNF; Parathyroid hormone; UniProt P01268 34-65, looked up, fragment)”, in test [5], the PTH antagonist activity result is “potent PTH antagonist in vitro”.
In the case of “PTH(15-31): carboxy-terminal fragment of PTH(1-34) (LNSMERVEWLRKKLQDV; Parathyroid hormone; UniProt P01270 46-62, looked up, fragment) [reference compound]”, the “stimulation of cAMP formation” value in test [2] (FIG. 1) was “inactive”.
For PTH(15-34): PTH(15-34) fragment, in test [6], the receptor binding result is on record as “binds weakly”. In addition, in test [7], the “activation of AC” value is recorded as “does not activate AC”.
As to “PTHrP(1-16): short NH2-terminal PTHrP peptide investigated previously (AVSEHQLLHDKGKSIQ; Parathyroid hormone-related protein; UniProt P12272 37-52, looked up, fragment)”, in test [8], the AC activity result is “inactive”.
As to “bPTH(1-12): short NH2-terminal PTH peptide investigated previously (AVSEIQFMHNLG; Parathyroid hormone; UniProt P01268 32-43, looked up, fragment)”, the adenylyl cyclase activity result in [9] is “inactive”.
On to “secretin (1-27): control native secretin (1-27) [reference compound]”, for which, in [3], the “stimulation of cAMP in cells expressing rat secretin receptor” value was “responds fully”.
